Reference: publication PMC4491180, “Grb2 monomer–dimer equilibrium determines normal versus oncogenic function” (Nature Communications, 2015)
Where no end group is shown, it is not given here. [ ]: non-standard residue; d: D form. pY = N[C@@H](Cc1ccc(OP(=O)(O)O)cc1)C(=O)O

Assays:
[1] = target: T1, bacterial GFP-tagged Grb2 on GFP-trap beads (smFLIM) (UniProt P62993 1-217); test: FRET or BRET; smFLIM: GFP–Grb2 on GFP-trap beads, RFP–Grb2 added for 1 h, 20 mM Tris-HCl, 50 mM NaCl, pH 8.0; then 10 μM phospho-Shc peptide for an hour; details: both partners purified
T1 construct: full-length Grb2; The second copy (FRET acceptor, added in solution) carried RFP (mRFP) instead of GFP; By the order of the cloning sites the fluorescent protein lies before Grb2; pET28a cut at NdeI may add an N-terminal His tag (surmised); also called GFP–Grb2; RFP–Grb2; source: E. coli (pET28a construct)
T1 sequence (P62993 whole entry): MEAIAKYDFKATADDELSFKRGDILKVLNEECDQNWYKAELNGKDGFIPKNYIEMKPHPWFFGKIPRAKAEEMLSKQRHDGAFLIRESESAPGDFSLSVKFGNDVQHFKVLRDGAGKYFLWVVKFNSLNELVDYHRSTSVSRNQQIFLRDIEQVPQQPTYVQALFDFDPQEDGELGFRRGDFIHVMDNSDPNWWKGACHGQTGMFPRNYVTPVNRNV

[2] = target: T2, wild-type Grb2 (growth factor receptor-bound protein 2), bacterially expressed and purified (UniProt P62993 1-217, Atto488 on the N-terminus of the labelled copy (100 nM); the titrated copy unlabelled); test: MST; monomer–dimer equilibrium of Grb2 in the presence of a saturating concentration of pShc peptide; details: both partners purified
T2 construct: cloned into a modified pET28a with a TEV site; also called ^WTGrb2; dGrb2
T2 sequence (P62993 whole entry): as above

B1: phospho-Shc peptide (peptide)
peptide: EEPPDHQ[pY]YNDFPGK
notes: Printed as EEPPDHQ(pY)YN-DFPGK; also called pShc; source: synthetic peptide, bought: GenScript
B1: binds [1]; binds [2].
